Data taken from patent US20190282704A1.
Residue numbers refer to the chain shown, from its start. Names may count otherwise.

B1: ZTS-361 (antibody)
heavy: QVLLVQSGAEVRTPGASVKIFCKASGYSFTSYTIHWLRQAPAQGLEWMGNINPTSGYTENNQRFKDRLTLTADTSTNTAYMELSSLRSADTAMYYCARWGFKYDGEWSFDVWGAGTTVTVSSASTTAPSVFPLAPSCGTTSGATVALACLVLGYFPEPVTVSWNSGALTSGVHTFPAVLQASGLYSLSSMVTVPSSRWLSDTFTCNVAHPPSNTKVDKTVRKTDHPPGPKPCDCPKCPPPEAAGAPSIFIFPPKPKDTLSISRTPEVTCLVVDLGPDDSDVQITWFVDNTQVYTAKTSPREEQFNSTYRVVSVLPILHQDWLKGKEFKCKVNSKSLPSPIERTISKAKGQPHEPQVYVLPPAQEELSRNKVSVTCLIKSFHPPDIAVEWEITGQPEPENNYRTTPPQLDSDGTYFVYSKLSVDRSHWQRGNTYTCSVSHEALHSHHTQKSLTQSPGK
light: EIQMTQSPSSLSASPGDRVTITCRASQGISIWLSWYQQKPGNIPKVLINKASNLHIGVPSRFSGSGSGTDFTLTISSLEPEDAATYYCLQSQTYPLTFGGGTKLEIKRSDAQPSVFLFQPSLDELHTGSASIVCILNDFYPKEVNVKWKVDGVVQNKGIQESTTEQNSKDSTYSLSSTLTMSSTEYQSHEKFSCEVTHKSLASTLVKSFQRSECQRE
B2: Feline 11E12 1.1 K46Q (antibody, V domains shown)
VH: QVLLVQSGAEVKKPGASVKIFCKASGYSFTYYDINWLRQAPEQGLEWMGWIFPGDGGTKYNETFKGRLTLTADTSTNTVYMELSSLRSADTAMYYCARGGTSVIRDAMDYWGQGALVTVSS
VL: EIQMTQSPSSLSASPGDRVTITCRASESVDNYGISFMHWYQQKPGQVPKLLIYRASNLESGVPSRFSGSGSGTDFTLTISSLEPEDAATYYCQQSNKDPLTFGQGT
B3: Feline 15H05_VH1 mouse VL (antibody, V domains shown)
VH: QVLLVQSGAEVRTPGASVKIFCKASGYSFTSYTIHWLRQAPAQGLEWMGNINPTSGYTENNQRFKDRLTLTADTSTNTAYMELSSLRSADTAMYYCARWGFKYDGEWSFDVWGAGTTVTVSS
VL: DIQMNQSPSSLSASLGDTITVTCRASQGISIWLSWYQQKPGNIPKVLINKASNLHIGVPPRFSGSGSGTHFTLTITSLQPEDIATYYCLQSQTYPLTFGGGTKLEIN
B4: Feline 15H05 2.2 (antibody, V domains shown)
VH: B3 VH with S28G, L37V, A40S
VL: EITMTQSPGSLAGSPGQQVTMNCRASQGISIWLSWYQQKPGQHPKLLIYKASNLHIGVPDRFSGSGSGTDFTLTISNLQAEDVASYYCLQSQTYPLTFGGGTKLEIK
B5: Feline 15H05 VH2 mouse VL (antibody, V domains shown)
VH: B3 VH with S28G, L37V, A40S
VL: B3 VL
B6: Feline 15H05 1.1 L46V (antibody, V domains shown)
VH: B3 VH
VL: EIQMTQSPSSLSASPGDRVTITCRASQGISIWLSWYQQKPGKVPKVLIYKASNLHIGVPSRFSGSGSGTDFTLTISSLEPEDAATYYCLQSQTYPLTFGGGTKLEIK
B7: Feline 15H05 1.2 (antibody, V domains shown)
VH: B3 VH
VL: B4 VL
B8: Feline 15H05 2.3 (antibody, V domains shown)
VH: B3 VH with S28G, L37V, A40S
VL: EVVLTQSSAFLSRTLKEKATITCRASQGISIWLSWYQQKPNQAPKLLVKKASNLHIGAPSRFSGSGSGTDFTLTISSPEPEDAATYYCLQSQTYPLTFGGGTKLGDQ
B9: Feline 15H05 1.1_FW1_2 (antibody, V domains shown)
VH: B3 VH
VL: B3 VL with P60S, H70D, T76S, Q79E, I83A, N107K
B10: Feline 15H05 1.1 FW1 (antibody, V domains shown)
VH: B3 VH
VL: B6 VL with E1D, T5N, P15L, R18T, V19I, I21V, V46L
B11: Feline 15H05 3.3 (antibody, V domains shown)
VH: B3 VH with T13K, A42E
VL: B8 VL
B12: Feline 15H05_VH3 mouse VL (antibody, V domains shown)
VH: B3 VH with T13K, A42E
VL: B3 VL
B13: Feline 15H05 2.1 (antibody, V domains shown)
VH: B3 VH with S28G, L37V, A40S
VL: B6 VL with V46L
B14: Feline 15H05 1.1 Y49N (antibody, V domains shown)
VH: B3 VH
VL: B6 VL with V46L, Y49N
B15: Feline 15H05 1.1 (antibody, V domains shown)
VH: B3 VH
VL: B6 VL with V46L
B16: Feline 15H05 1.1 K42N (antibody, V domains shown)
VH: B3 VH
VL: B6 VL with K42N, V46L
B17: Feline 15H05 1.1 K42N_V43I (antibody, V domains shown)
VH: B3 VH
VL: B6 VL with K42N, V43I, V46L
B18: Feline 15H05 1.1 V43I (antibody, V domains shown)
VH: B3 VH
VL: B6 VL with V43I, V46L
B19: Feline 15H05 1.1 FW2_3 (antibody, V domains shown)
VH: B3 VH
VL: B3 VL with D1E, N5T, L15P, T18R, I19V, V21I, N107K
B20: Feline 15H05 1.1 FW3 (antibody, V domains shown)
VH: B3 VH
VL: B6 VL with V46L, S60P, D70H, S76T, E79Q, A83I
B21: Feline 15H05 1.1 FW1_3 (antibody, V domains shown)
VH: B3 VH
VL: B3 VL with N42K, I43V, V46L, N49Y, N107K
B22: Feline 15H05 3.1 (antibody, V domains shown)
VH: B3 VH with T13K, A42E
VL: B6 VL with V46L
B23: Feline 15H05 1.3 (antibody, V domains shown)
VH: B3 VH
VL: B8 VL
B24: Feline 15H05 1.1 FW2 (antibody, V domains shown)
VH: B3 VH
VL: B6 VL with K42N, V43I, Y49N

Key:
[1] = target: wildtype feline IL-31 (Feline_IL31_wildtype) (feline); assay: SPR (Biacore), immobilised IL-31, 1:1 fit
[2] = target: canine IL-31 (Canine_IL31) (canine); assay: SPR (Biacore), immobilised IL-31, 1:1 fit
canine IL-31 (Canine_IL31) (canine), sequence (chain, as listed by the source limits assumed, form in doubt): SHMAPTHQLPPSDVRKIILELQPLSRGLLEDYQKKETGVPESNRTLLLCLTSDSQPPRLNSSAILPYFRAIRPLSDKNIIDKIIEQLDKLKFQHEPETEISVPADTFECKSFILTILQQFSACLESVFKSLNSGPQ

wildtype feline IL-31 (Feline_IL31_wildtype) (feline), sequence (chain, as listed by the source limits assumed, form in doubt): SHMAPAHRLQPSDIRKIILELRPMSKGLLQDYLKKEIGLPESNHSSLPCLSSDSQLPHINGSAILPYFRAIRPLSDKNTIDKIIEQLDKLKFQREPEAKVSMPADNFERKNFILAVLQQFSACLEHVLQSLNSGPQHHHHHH

Binder	Kd [1] [nM]	koff [1] [s⁻¹]	kon [1] [M⁻¹ s⁻¹]	Kd [2] [nM]	koff [2] [s⁻¹]	kon [2] [M⁻¹ s⁻¹]
B1	0.474	2.18e-05	46000	–	–	–
B2	12.6	0.000145	11500	1.91	8.85e-05	46400
B3	0.168	2.2e-05	131000	0.00246	2.66e-07	108000
B4	2.15	0.00195	905000	0.393	1.09e-05	27700
B5	1.61	5.47e-05	34000	2.22	0.000379	171000
B6	22.8	0.000811	35500	–	–	–
B7	104	0.00147	14100	3.48	0.000115	33000
B8	1.57	0.000535	341000	–	–	–
B9	0.887	6.7e-06	7560	0.263	3.82e-06	6910
B10	564	0.00286	5060	813	0.0156	19200
B11	11.6	0.000886	76300	–	–	–
B12	0.177	1.57e-05	88900	0.00264	2.64e-07	100000
B13	22.3	0.00465	208000	1.65	0.000866	525000
B14	39.5	0.00095	24000	–	–	–
B15	13.5	0.00131	97100	0.00504	1.36e-07	27000
B16	6770	0.011	1630	–	–	–
B17	9.42	0.0022	234000	–	–	–
B18	13.6	0.000401	29400	–	–	–
B19	123	0.00116	9490	214	0.00193	9050
B20	0.0564	1.21e-05	214000	0.13	3.91e-07	3000
B21	0.0674	3.02e-05	448000	0.00436	2.88e-08	6590
B22	37.1	0.00166	44700	0.795	2.11e-05	26500
B23	86.4	0.00328	38000	6.38	0.00019	29700
B24	0.065	2.49e-05	383000	0.000431	1.66e-07	384000
